Columns and labels:
[1] = target: T1, Human DLAT recombinant protein (ProSpec, Catalog # ENZ-082) (human, UniProt P10515 87-647, limits assumed); experiment: BIAcore kinetics, antibody captured on anti-mouse surface, DLAT (Prospec) as analyte
T1 construct: also called DLAT antigen; Dihydrolipoamide Acetyltransferase
T1 sequence (looked up): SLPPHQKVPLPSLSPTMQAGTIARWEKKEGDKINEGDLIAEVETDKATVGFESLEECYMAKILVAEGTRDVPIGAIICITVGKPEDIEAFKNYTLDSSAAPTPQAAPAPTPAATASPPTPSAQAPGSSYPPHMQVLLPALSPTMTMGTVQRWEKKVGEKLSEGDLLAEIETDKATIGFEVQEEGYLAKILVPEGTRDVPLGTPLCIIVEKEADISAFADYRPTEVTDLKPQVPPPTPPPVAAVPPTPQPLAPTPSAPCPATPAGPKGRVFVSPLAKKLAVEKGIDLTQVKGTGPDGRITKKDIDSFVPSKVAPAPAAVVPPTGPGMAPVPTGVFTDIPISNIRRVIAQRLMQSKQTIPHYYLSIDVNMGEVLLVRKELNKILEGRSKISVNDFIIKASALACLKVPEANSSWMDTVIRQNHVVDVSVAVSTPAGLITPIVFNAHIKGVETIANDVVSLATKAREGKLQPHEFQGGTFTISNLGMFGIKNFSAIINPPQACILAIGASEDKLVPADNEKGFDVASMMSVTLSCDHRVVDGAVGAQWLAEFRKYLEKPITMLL

[2] = target: T2, Programmed Death 1 (PD-1) Fc chimera (R&D Systems, Catalog # 1086-PD-050) (human, UniProt Q15116 25-167); experiment: BLI (Octet), PD-1 Fc captured on anti-human Fc tips, TPP-994 at 10 µg/mL in PBS as analyte
T2 construct: Bought reagent; not shown: Fc part of the bought chimera (captured by anti-human Fc tips)
Description: Final dissociation in PBS was performed in the last step on the Bio-Layer Interferometry (BLI) data.

T2 sequence (Q15116 25-167, change not shown): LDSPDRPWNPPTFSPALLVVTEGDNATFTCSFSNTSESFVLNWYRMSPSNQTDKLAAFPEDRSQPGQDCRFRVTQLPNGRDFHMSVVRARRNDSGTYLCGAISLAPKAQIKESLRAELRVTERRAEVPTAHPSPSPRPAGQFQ

| Binder | Kd [1] [nM] | koff [1] [s⁻¹] | kon [1] [M⁻¹ s⁻¹] | binding result [2] |
| --- | --- | --- | --- | --- |
| TPP-1003 (mIgG1 PD2 Ab) (antibody, V domains shown, also called mouse IgG1 chimera anti-DLAT antibody PD2) VH: EVQLVESGGGLVKPGGSLRLSCAASGFTFGSYSMTWVRQAPGKGLEWVSFISTVSTYIYYPDSVKGRFTISRDNAKNSLYLQMNSLRAEDTAVYYCARVSGRGSAARDGEKGTYYYYMDVWGKGTTVTVSS VL: SSELTQDPAVSVALGQTVTITCQGDSLRSYYASWYQQKPGQAPVLVIFGKNNRPSGIPDRFSGSRSGNTASLTITGAQAEDEADYFCDSRDSSANHWVFGGGTKLTVLQ | 0.242 | 4.68e-05 | 193000 |  |
| TPP-994 (PD2 with PD-L1 fused to the C-terminus of the heavy chain) (Fab, Fab fusion with the human PD-L1 variable-like domain) heavy: EVQLVESGGGLVKPGGSLRLSCAASGFTFGSYSMTWVRQAPGKGLEWVSFISTVSTYIYYPDSVKGRFTISRDNAKNSLYLQMNSLRAEDTAVYYCARVSGRGSAARDGEKGTYYYYMDVWGKGTTVTVSSASTKGPSVFPLAPSSKSTSGGTAALGCLVKDYFPEPVTVSWNSGALTSGVHTFPAVLQSSGLYSLSSVVTVPSSSLGTQTYICNVNHKPSNTKVDKRVEPKSCGGSSRSSSSGGGGSGGGGFTVTVPKDLYVVEYGSNMTIECKFPVEKQLDLAALIVYWEMEDKNIIQFVHGEEDLKVQHSSYRQRARLLKDQLSLGNAALQITDVKLQDAGVYRCMISYGGADYKRITVKVNA light: SSELTQDPAVSVALGQTVTITCQGDSLRSYYASWYQQKPGQAPVLVIFGKNNRPSGIPDRFSGSRSGNTASLTITGAQAEDEADYFCDSRDSSANHWVFGGGTKLTVLQPKAAPSVTLFPPSSEELQANKATLVCLISDFYPGAVTVAWKADSSPVKAGVETTTPSKQSNNKYAASSYLSLTPEQWKSHKSYSCQVTHEGSTVEKTVAPTECS |  |  |  | binds |

The next lines start with results.

| Kd [1] [nM] | koff [1] [s⁻¹] | kon [1] [M⁻¹ s⁻¹] | Binder | binding result [2] |
| --- | --- | --- | --- | --- |
| 0.526 | 1.94e-05 | 36900 | TPP-1004 (mIgG1 PD5 Ab) (antibody, also called murine IgG1 PD5; Mouse PD5) heavy: QLQLQESGPGLVKPSETLSLTCIVSGGSISRNSYYWGWIRQPPGKGLEWIGSIVYSGSTYHQPSLKSRVTIFLDTSKNQFFLKLTSVTAADTAVYYCARGTRATTWPPPIGYWGQGTLVTVSSAKTTPPSVYPLAPGSAAQTNSMVTLGCLVKGYFPEPVTVTWNSGSLSSGVHTFPAVLQSDLYTLSSSVTVPSSTWPSQTVTCNVAHPASSTKVDKKIVPRDCGCKPCICTVPEVSSVFIFPPKPKDVLTITLTPKVTCVVVDISKDDPEVQFSWFVDDVEVHTAQTKPREEQINSTFRSVSELPIMHQDWLNGKEFKCRVNSAAFPAPIEKTISKTKGRPKAPQVYTIPPPKEQMAKDKVSLTCMITNFFPEDITVEWQWNGQPAENYKNTQPIMDTDGSYFVYSKLNVQKSNWEAGNTFTCSVLHEGLHNHHTEKSLSHSPGK light: QSVLTQPPSVSAAPGQKVTVSCFGSSSNIGNYFASWYQQLPGAAPRLLIYGNNERPSGIPDRFSGSKSGTSATLVITGLQTGDEAAYYCATWDSSLSAVVFGGGTKLTVLGQPRADAAPTVSIFPPSSEQLTSGGASVVCFLNNFYPKDINVKWKIDGSERQNGVLNSWTDQDSKDSTYSMSSTLTLTKDEYERHNSYTCEATHKTSTSPIVKSFNRNEC |  |
| 1.72 | 0.000149 | 86300 | TPP-1005 (mIgG1 DWZ Ab) (antibody, V domains shown, also called murine IgG1 DWZ) VH: EVQLLESGGDVVQPGGSLRLSCVASGFTLTNYVTAWVRRRPGKGLEWISGMTHGAVATYYSDSVRGRFSSSRDTSRSTLYLQMNDLTVEDTAIYYCAKSLHRSGTSLSYWGQGTLVTVSS VL: QSVLTQPPSASGTPGQNINISCSGTTSNIGGSNVDWYQHVPGTAPKLFIHSNNQRPSGVPARFSASKSGTSASLAISGLQSEDEADYYCATWDVRLLAYVFGSATEVTVLR |  |
